Assay results taken from the supplement of paper PMC10065799, “High-throughput profiling of sequence recognition by tyrosine kinases and SH2 domains using bacterial peptide display” (eLife, 2023).

How the values were obtained:
Hck = Hck (UniProt P08631); assay: phosphorylation enrichment, bacterial display (enrichment ratio); higher = better substrate or ligand; peptides without Tyr show the background
c-Src = assay: as above
Fyn = Fyn (UniProt P06241); assay: as above
FGFR1 = FGFR1 (UniProt P11362); assay: as above
Jak2 = Jak2 (UniProt O60674); assay: as above
FGFR3 = FGFR3 (UniProt P22607); assay: as above
AncSZ = assay: as above
Fes = Fes (UniProt P07332); assay: as above
MERTK = MERTK (UniProt Q12866); assay: as above
c-Abl (mouse) = assay: as above
EPHB2 = EPHB2 (UniProt P29323); assay: as above
EPHB1 = EPHB1 (UniProt P54762); assay: as above
Fer (mouse) = assay: as above
Grb2 SH2 = Grb2 SH2 (UniProt P62993); assay: SH2 binding enrichment of the phosphorylated peptide, bacterial display (enrichment ratio); higher = better substrate or ligand; peptides without Tyr show the background
SHP2-C SH2 = assay: as above
c-Src SH2 = assay: as above
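Wherever SH2 binding enrichment of the phosphorylated peptide, bacterial display is given: peptide library displayed on the E. coli surface as eCPX fusions, selected cells deep-sequenced, score is each peptide's frequency after selection divided by its frequency in the input.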
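Wherever phosphorylation enrichment, bacterial display is given: 11-residue human phosphosite peptides and single-mutation variants displayed on the E. coli surface, counted by deep sequencing, each peptide's frequency after selection divided by its frequency in the unselected input library; frequency after pTyr selection over input frequency; kinase dosed for 20-30% of maximal phosphorylation in three min.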

EPHB1, sequence (P54762 whole entry, looked up): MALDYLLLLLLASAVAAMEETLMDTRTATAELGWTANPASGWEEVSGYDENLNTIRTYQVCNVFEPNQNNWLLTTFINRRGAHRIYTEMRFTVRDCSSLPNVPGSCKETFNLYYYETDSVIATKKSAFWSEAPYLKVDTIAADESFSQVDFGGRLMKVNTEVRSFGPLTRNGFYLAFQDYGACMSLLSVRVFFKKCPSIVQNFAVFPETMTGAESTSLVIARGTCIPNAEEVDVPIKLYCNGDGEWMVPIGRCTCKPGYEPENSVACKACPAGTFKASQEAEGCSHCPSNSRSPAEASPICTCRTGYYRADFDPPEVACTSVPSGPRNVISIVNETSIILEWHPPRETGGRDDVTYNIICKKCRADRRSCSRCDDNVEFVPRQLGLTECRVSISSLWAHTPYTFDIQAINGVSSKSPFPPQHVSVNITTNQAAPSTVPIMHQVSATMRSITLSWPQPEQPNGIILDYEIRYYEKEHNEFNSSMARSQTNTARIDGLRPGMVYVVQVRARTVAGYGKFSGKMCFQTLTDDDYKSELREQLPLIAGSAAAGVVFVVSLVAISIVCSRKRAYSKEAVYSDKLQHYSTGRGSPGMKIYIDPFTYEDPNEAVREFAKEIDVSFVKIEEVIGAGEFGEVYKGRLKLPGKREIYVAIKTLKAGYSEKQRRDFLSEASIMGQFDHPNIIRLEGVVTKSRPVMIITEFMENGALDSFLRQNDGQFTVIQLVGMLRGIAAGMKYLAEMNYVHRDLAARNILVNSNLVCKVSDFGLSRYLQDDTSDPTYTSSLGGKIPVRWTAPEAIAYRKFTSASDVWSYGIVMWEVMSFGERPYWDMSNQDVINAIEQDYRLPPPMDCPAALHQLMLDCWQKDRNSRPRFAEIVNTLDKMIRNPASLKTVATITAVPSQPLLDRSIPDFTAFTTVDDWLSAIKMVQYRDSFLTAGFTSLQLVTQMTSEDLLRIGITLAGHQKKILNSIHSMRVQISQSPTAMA
EPHB2, sequence (P29323 whole entry, looked up): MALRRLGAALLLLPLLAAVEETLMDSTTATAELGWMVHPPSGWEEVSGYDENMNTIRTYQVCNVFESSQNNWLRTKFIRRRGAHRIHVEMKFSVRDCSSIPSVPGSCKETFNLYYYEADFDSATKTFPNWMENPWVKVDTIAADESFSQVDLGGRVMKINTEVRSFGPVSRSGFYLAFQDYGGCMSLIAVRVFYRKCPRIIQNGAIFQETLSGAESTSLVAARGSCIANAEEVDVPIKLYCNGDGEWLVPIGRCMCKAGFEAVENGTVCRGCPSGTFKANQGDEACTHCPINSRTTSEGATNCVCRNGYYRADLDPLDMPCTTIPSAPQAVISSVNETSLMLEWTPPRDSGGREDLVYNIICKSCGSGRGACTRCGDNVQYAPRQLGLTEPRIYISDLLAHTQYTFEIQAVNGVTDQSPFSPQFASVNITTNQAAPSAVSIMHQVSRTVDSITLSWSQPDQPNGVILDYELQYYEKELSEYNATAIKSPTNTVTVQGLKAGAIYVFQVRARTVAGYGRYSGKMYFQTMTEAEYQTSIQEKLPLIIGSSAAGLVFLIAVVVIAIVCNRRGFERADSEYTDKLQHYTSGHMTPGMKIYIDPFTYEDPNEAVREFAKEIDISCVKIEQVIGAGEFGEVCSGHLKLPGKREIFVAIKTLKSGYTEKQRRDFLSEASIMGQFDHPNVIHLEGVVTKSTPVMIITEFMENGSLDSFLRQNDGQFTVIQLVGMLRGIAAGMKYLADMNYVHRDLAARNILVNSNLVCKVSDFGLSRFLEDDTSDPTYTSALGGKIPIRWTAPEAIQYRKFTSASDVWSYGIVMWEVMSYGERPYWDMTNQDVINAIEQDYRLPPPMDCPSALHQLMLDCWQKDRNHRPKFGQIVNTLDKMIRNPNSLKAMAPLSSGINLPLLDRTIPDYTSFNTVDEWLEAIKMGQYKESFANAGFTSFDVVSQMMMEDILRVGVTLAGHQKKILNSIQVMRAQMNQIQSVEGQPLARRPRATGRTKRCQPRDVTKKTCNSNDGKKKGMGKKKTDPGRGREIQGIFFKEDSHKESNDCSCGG
Fes, sequence (P07332 whole entry, looked up): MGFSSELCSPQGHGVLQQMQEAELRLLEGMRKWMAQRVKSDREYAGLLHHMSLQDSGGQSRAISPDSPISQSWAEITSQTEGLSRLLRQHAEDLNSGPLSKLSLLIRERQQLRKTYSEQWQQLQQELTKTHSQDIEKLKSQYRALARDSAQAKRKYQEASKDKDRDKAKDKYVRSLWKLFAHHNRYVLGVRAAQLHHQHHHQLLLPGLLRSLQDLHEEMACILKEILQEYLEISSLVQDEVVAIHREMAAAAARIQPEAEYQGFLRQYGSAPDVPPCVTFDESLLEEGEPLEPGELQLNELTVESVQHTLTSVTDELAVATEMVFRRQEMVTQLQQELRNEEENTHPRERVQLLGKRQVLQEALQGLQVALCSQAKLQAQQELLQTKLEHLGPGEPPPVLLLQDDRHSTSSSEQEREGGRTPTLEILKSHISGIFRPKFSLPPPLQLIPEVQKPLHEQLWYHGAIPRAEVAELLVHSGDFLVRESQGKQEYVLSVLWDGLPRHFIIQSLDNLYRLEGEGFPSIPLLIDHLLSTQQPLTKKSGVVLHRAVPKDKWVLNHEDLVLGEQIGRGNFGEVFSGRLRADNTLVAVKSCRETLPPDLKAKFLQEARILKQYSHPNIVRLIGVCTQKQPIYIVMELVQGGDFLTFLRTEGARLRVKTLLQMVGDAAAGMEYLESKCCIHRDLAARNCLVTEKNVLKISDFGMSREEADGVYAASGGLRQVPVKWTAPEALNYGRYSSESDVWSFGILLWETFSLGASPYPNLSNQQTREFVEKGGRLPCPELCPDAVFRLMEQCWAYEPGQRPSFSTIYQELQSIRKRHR
Fyn, sequence (P06241 whole entry, looked up): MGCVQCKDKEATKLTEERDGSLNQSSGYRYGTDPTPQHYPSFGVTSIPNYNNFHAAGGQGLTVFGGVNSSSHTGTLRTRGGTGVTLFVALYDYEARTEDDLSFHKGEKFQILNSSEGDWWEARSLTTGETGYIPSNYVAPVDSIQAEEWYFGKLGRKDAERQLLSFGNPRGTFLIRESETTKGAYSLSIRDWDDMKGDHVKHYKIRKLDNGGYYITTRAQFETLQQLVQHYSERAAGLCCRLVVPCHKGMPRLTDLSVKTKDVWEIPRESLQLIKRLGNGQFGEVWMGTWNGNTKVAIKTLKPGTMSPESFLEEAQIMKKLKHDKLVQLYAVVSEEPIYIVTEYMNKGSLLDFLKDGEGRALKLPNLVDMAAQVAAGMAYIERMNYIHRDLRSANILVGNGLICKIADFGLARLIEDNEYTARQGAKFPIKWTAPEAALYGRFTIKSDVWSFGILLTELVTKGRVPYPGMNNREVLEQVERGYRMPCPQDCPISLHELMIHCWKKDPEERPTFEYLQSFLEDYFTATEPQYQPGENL
Hck, sequence (P08631 whole entry, looked up): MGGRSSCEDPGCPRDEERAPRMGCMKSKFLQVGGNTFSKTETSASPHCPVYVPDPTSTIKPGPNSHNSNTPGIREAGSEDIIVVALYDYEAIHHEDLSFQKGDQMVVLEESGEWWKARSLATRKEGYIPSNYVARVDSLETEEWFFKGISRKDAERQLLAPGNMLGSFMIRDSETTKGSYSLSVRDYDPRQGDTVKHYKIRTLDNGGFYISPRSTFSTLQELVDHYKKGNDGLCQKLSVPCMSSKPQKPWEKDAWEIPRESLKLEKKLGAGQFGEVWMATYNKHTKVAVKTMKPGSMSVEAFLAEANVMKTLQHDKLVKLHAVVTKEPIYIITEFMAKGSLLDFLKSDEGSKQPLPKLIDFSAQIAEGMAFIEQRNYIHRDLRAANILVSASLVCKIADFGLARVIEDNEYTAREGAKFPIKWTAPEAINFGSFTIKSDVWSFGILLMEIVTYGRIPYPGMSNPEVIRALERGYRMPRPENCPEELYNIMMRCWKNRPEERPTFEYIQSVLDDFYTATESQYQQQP
MERTK, sequence (Q12866 whole entry, looked up): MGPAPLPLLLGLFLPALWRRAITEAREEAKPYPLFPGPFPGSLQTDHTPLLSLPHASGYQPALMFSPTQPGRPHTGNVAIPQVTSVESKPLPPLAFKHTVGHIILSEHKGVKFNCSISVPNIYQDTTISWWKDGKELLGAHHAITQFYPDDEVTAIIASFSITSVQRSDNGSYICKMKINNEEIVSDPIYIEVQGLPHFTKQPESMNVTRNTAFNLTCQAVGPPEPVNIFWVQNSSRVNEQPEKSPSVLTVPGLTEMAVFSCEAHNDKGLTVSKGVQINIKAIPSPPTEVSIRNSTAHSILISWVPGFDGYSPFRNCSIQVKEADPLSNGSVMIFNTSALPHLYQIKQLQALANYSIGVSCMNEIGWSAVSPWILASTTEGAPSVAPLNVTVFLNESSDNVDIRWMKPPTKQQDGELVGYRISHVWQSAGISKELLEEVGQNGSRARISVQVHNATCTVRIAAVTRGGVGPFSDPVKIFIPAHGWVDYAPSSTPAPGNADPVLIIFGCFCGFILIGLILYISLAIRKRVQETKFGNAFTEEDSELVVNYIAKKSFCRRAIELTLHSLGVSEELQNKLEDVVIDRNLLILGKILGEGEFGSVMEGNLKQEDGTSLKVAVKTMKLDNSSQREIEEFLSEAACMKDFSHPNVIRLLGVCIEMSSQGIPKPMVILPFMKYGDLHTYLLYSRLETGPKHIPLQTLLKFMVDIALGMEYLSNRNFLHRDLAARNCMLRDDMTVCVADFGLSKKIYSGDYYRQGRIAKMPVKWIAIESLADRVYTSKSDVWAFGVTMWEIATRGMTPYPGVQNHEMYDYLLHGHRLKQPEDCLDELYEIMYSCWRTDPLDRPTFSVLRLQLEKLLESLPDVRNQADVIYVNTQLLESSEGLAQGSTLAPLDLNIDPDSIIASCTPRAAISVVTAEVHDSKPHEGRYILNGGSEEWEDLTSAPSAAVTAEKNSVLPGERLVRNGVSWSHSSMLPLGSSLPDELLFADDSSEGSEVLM

Row | Sequence | phosphorylation enrichment (Hck) | phosphorylation enrichment (c-Src) | phosphorylation enrichment (Fyn) | phosphorylation enrichment (FGFR1) | phosphorylation enrichment (Jak2) | phosphorylation enrichment (FGFR3) | phosphorylation enrichment (AncSZ) | phosphorylation enrichment (Fes) | phosphorylation enrichment (MERTK) | phosphorylation enrichment (c-Abl (mouse)) | phosphorylation enrichment (EPHB2) | phosphorylation enrichment (EPHB1) | phosphorylation enrichment (Fer (mouse)) | SH2 binding enrichment (Grb2 SH2) | SH2 binding enrichment (SHP2-C SH2) | SH2 binding enrichment (c-Src SH2)
1 | LWKWRYEELKE [CCDC102B_Y299_K298R] | 0.561 | 0.715 | 0.629 | 0.503 | 2.73 | 1.02 | 1.34 | 2.5 | 0.909 | 1.7 | 1.09 | 1.28 | 0.771 | 1.29 | 1.36 | 2.08
2 | LWQSIYNLEAE [TNNT2_Y251] | 7.01 | 6.57 | 12.4 | 0.66 | 0.921 | 1.05 | 1.33 | 1.45 | 0.664 | 0.881 | 0.791 | 0.793 | 0.544 | 1.09 | 1.48 | 0.54
3 | MAFDRYVAICA [OR52J3_Y125_V128I] | 0.555 | 0.394 | 0.454 | 0.586 | 0.726 | 0.708 | 0.939 | 0.808 | 0.386 | 0.362 | 0.659 | 1.12 | 0.562 | 1.08 | 0.635 | 0.974
4 | MARDIYQASYY [LTK_Y672_R673Q] | 6.75 | 6.26 | 5.45 | 1.41 | 0.78 | 1.19 | 1.04 | 0.879 | 5.18 | 3.09 | 3.03 | 2.55 | 1.97 | 1.12 | 1.03 | 0.919
5 | MENFIYESMRY [CYP19A1_Y361] | 6.76 | 6.18 | 8.43 | 0.569 | 0.839 | 0.728 | 1.23 | 3.6 | 2.31 | 1.25 | 3.32 | 5.46 | 13.1 | 0.819 | 0.553 | 0.627
6 | MFDKEYFSVHN [MET_Y1234_YF] | 0.513 | 0.632 | 0.488 | 1.84 | 1.46 | 1.31 | 1.31 | 1.03 | 0.393 | 0.782 | 0.566 | 0.605 | 0.451 | 0.746 | 0.713 | 0.548
7 | MFVKSYTIHFS [F5_Y2153_YF] | 0.495 | 0.48 | 0.482 | 0.49 | 1.05 | 0.736 | 1 | 1.19 | 0.456 | 0.851 | 0.579 | 0.565 | 0.464 | 0.742 | 0.753 | 0.494
8 | MGGSLYFSYPD [HIKESHI_Y55_V54L] | 3.45 | 4.41 | 3.46 | 3.4 | 2.11 | 3.12 | 1.49 | 1.26 | 7.06 | 1.16 | 5.75 | 4.44 | 0.802 | 0.77 | 0.605 | 0.656
9 | MGSYNYLGFPR [SPTLC2_Y178_A182P] | 1.39 | 0.735 | 0.511 | 2.29 | 3.81 | 1.48 | 0.806 | 0.748 | 6.35 | 1.04 | 2.77 | 5.53 | 0.59 | 0.921 | 1.92 | 2.84
10 | MHDSNCVSKGS [PDGFRA_Y849_Y849C] | 0.456 | 0.414 | 0.387 | 0.456 | 0.683 | 0.485 | 0.57 | 0.72 | 0.384 | 0.559 | 0.367 | 0.396 | 0.388 | 0.86 | 0.609 | 0.572
11 | MIAIRYSHSRR [ACOXL_Y260_T255M] | 0.43 | 0.426 | 0.444 | 0.377 | 0.434 | 0.518 | 0.875 | 0.487 | 0.353 | 0.473 | 0.465 | 0.539 | 0.324 | 0.959 | 0.652 | 0.56
12 | MILSAYALGGL [CPS1_Y590_R587L] | 0.497 | 0.584 | 0.458 | 0.431 | 0.928 | 0.675 | 0.894 | 1 | 0.436 | 0.736 | 0.562 | 0.655 | 0.552 | 0.835 | 0.794 | 0.708
13 | MKALGYFAVGT [OPA1_Y498_V502G] | 0.489 | 0.487 | 0.432 | 0.479 | 1.92 | 0.64 | 0.798 | 0.973 | 0.355 | 0.7 | 0.486 | 0.469 | 0.395 | 0.831 | 0.545 | 0.543
14 | MKDLTYSSLCF [ALOX5_Y446_A447S] | 6.78 | 5.91 | 6.62 | 0.997 | 1.21 | 1.14 | 1.48 | 1.35 | 4.91 | 1.53 | 2.67 | 2.89 | 3.84 | 0.756 | 0.617 | 0.555
